# Results: US20200317753A1 (LIFEARC, published 2020)
# Residue numbers refer to the chain shown, from its start. Like-named read-outs stand apart in the source and are kept apart here.
# T1: SP70 peptide epitope of the EV71 VP1 capsid protein (Enterovirus 71)
# T1 construct: 15-amino acid peptide; residues 208-222 counted on VP1
# T1 peptide: YPTFGEHKQEKDLEY
# B1: murine D5 antibody (antibody, V domains shown)
# VH: EVQLQQSGAELVKPGASVKLSCTASGFNIKDTYIHWVKQRPEQGLEWIGKIDPANGNTKYDPKFQDKATITADTSSNTAYLQLSSLTSEDTAVYYCANSNYWFDFDYWGQGTTLTVSS
# VL: DVLMTQTPLSLPVSLGDQASISCRSSQSIVHSNGNTYLEWYLQKPGQSPKLLIYKVSNRFSGVPDRFSGSGSGTDFTLKISRVEADDVGVYYCYQGSHVPYTFGGGTKLEIK
# notes: Mouse monoclonal IgG1 (label mD5 IgG1); also called mD5; mouse D5
# B2: hEV71 HAKA (antibody, V domains shown)
# VH: QVQLVQSGAEVKKPGASVKVSCKASGYTFTDTYIHWVRQAPGQRLEWIGKIDPANGNTKYDPKFQDRVTITRDTSASTAYMELSSLRSEDTAVYYCASSNYWFDFDYWGQGTLVTVSS
# VL: B1 VL with V2I, L3V, T7S, S14T, L15P, D17E, Q18P, K50Q, D86E, L109V
# notes: Variable domains only; cloned into pHuG1 and pHuK (human IgG / kappa) vectors, expressed in Expi293 cells
# B3: chimeric D5 antibody (antibody, V domains shown)
# VH: B1 VH
# VL: B1 VL
# notes: Human constant regions and murine D5 variable regions, expressed in Expi293 cells; also called chD5; cD5 CHCK
# B4: hEV71 HCKA (antibody, V domains shown)
# VH: B2 VH with Y27F
# VL: B1 VL with V2I, L3V, T7S, S14T, L15P, D17E, Q18P, K50Q, D86E, L109V
# notes: Variable domains only; pHuG1 / pHuK vectors
# B5: hEV71 HMKA (antibody, V domains shown)
# VH: B2 VH with K23T, Y27F, T28N, F29I, T30K, R67K, V68A, R72A, S77N, S98N
# VL: B1 VL with V2I, L3V, T7S, S14T, L15P, D17E, Q18P, K50Q, D86E, L109V
# notes: Variable domains only; pHuG1 / pHuK vectors, Expi293 cells; behaves as an IgG monomer; also called huEV71 HMKA; EVM00
# B6: hEV71 HPKA (antibody, V domains shown)
# VH: B2 VH with R67K, S98N
# VL: B1 VL with V2I, L3V, T7S, S14T, L15P, D17E, Q18P, K50Q, D86E, L109V
# notes: Variable domains only
# B7: hEV71 HEKA (antibody, V domains shown)
# VH: B2 VH with F29I
# VL: B1 VL with V2I, L3V, T7S, S14T, L15P, D17E, Q18P, K50Q, D86E, L109V
# notes: Named only within the range hEV71 HCKA to hEV71 HJKA; Variable domains only
# B8: hEV71 HHKA (antibody, V domains shown)
# VH: B2 VH with V68A
# VL: B1 VL with V2I, L3V, T7S, S14T, L15P, D17E, Q18P, K50Q, D86E, L109V
# notes: as for B7
# B9: hEV71 HQKA (antibody, V domains shown)
# VH: QVQLVQSGAEVKKPGASVKVSCTASGFNIKDTYIHWVKQAPGQRLEWIGKIDPANGNTKYDPKFQDKATITADTSANTAYMELSSLRSEDTAVYYCANSNYWFDFDYWGQGTLVTVSS
# VL: B1 VL with V2I, L3V, T7S, S14T, L15P, D17E, Q18P, K50Q, D86E, L109V
# notes: Variable domains only
# B10: hEV71 HNKA (antibody, V domains shown)
# VH: B9 VH with T23K, N77S
# VL: B1 VL with V2I, L3V, T7S, S14T, L15P, D17E, Q18P, K50Q, D86E, L109V
# notes: Variable domains only
# B11: hEV71 HAKB (antibody, V domains shown)
# VH: B2 VH
# VL: B1 VL with T7S, S14T, L15P, D17E, Q18P, K50Q, D86E, L109V
# notes: as for B4
# B12: hEV71 HGKA (antibody, V domains shown)
# VH: B2 VH with R67K
# VL: B1 VL with V2I, L3V, T7S, S14T, L15P, D17E, Q18P, K50Q, D86E, L109V
# notes: as for B7
# B13: hEV71 HDKA (antibody, V domains shown)
# VH: B2 VH with T28N
# VL: B1 VL with V2I, L3V, T7S, S14T, L15P, D17E, Q18P, K50Q, D86E, L109V
# notes: Variable domains only
# B14: hEV71 HJKA (antibody, V domains shown)
# VH: B2 VH with S98N
# VL: B1 VL with V2I, L3V, T7S, S14T, L15P, D17E, Q18P, K50Q, D86E, L109V
# notes: as for B4
# B15: hEV71 HFKA (antibody, V domains shown)
# VH: B2 VH with T30K
# VL: B1 VL with V2I, L3V, T7S, S14T, L15P, D17E, Q18P, K50Q, D86E, L109V
# notes: as for B7
# B16: hEV71 HBKA (antibody, V domains shown)
# VH: B9 VH with T23K, K38R, N77S
# VL: B1 VL with V2I, L3V, T7S, S14T, L15P, D17E, Q18P, K50Q, D86E, L109V
# notes: as for B4
# B17: hEV71 HIKA (antibody, V domains shown)
# VH: B2 VH with R72A
# VL: B1 VL with V2I, L3V, T7S, S14T, L15P, D17E, Q18P, K50Q, D86E, L109V
# notes: as for B7
# Tests used:
# [1] = biological target: T1, SP70 peptide epitope of the EV71 VP1 …; experiment: binding ELISA on SP70 peptide, absorbance at 450 nm
# [2] = biological target: T2, EV71-VLP (virus-like particle) (Enterovirus 71); experiment: Bio-Layer Interferometry, steady state plot (apparent KD)
# T2 construct: Particle of several capsid proteins
# [3] = biological target: T2, EV71-VLP (virus-like particle); experiment: binding ELISA on EV71-VLP, absorbance at 450 nm
# [4] = biological target: T1, SP70 peptide epitope of the EV71 VP1 …; experiment: binding ELISA on SP70 peptide, OD 650 nm [upper panel]
# Description: (§1) Serial dilutions of antibody variants (starting from ˜100 −g/ml) were added to immobilised EV71-VLP or the SP70 peptide epitope, shaken for one hour at room temperature and washed with PBS-T. Anti-human kappa chain HRP was added and the incubation and washing steps were repeated. TMB/K-Blue substrate was incubated with the reaction for 5-10 minutes at room temperature before the reaction was stopped with H₂SO₄ RED STOP. The optical density was read at 450/650 nm.
# [5] = biological target: T1, SP70 peptide epitope of the EV71 VP1 …; experiment: binding ELISA on SP70 peptide, absorbance at 450 nm
# [6] = biological target: T2, EV71-VLP (virus-like particle); experiment: binding ELISA on EV71-VLP, absorbance at 450 nm; remark: listed apart in the source
# [7] = biological target: T1, SP70 peptide epitope of the EV71 VP1 …; experiment: isothermal titration calorimetry, observed KA
# Excerpt: (§2) KD can be calculated using Gibbs free energy, enthalpy and entropy: ΔG=ΔH−TΔS and ΔG=RT In KD.
# [8] = biological target: T1, SP70 peptide epitope of the EV71 VP1 …; experiment: isothermal titration calorimetry (observed KD); the text paragraph 208 prints 17.1 nM
# [9] = biological target: T1, SP70 peptide epitope of the EV71 VP1 …; experiment: binding ELISA on SP70 peptide, OD 650 nm
# Description: as §1
# [10] = biological target: T1, SP70 peptide epitope of the EV71 VP1 …; experiment: isothermal titration calorimetry
# [11] = biological target: T1, SP70 peptide epitope of the EV71 VP1 …; experiment: isothermal titration calorimetry, observed KD
# Excerpt: as §2
# [12] = biological target: T1, SP70 peptide epitope of the EV71 VP1 …; experiment: binding ELISA on SP70 peptide, OD 650 nm
# Description: as §1
# [13] = biological target: T1, SP70 peptide epitope of the EV71 VP1 …; experiment: binding ELISA on SP70 peptide, antibody not incubated, OD 650 nm [top panel]
binder,measurement,setting,value
B1,EC50,[1],0.3 nM
same,Kd,[2],1.8 nM
same,EC50,[3],12.7 nM
B2,binding result,[4],binds
B3,EC50,[5],6.7 nM
same,EC50,[6],1.6 nM
same,Ka,[7],5.66e+07 M⁻¹
same,Kd,[2],0.2 nM
same,Kd,[8],17.7 nM
same,EC50,[9],1.4 nM
same,ΔH,[10],-12.8 kcal/mol
same,ΔS,[10],-7.63 cal/mol/deg
same,Kd,[11],17.1 nM
B4,binding result,[12],binds
B5,Ka,[7],2.62e+07 M⁻¹
same,EC50 (read off the curve),[13],~0.8 nM
same,EC50,[9],1.15 nM
same,ΔH,[10],-16.5 kcal/mol
same,ΔS,[10],-21.4 cal/mol/deg
same,Kd,[11],38.2 nM
B6,EC50,[9],67.7 nM
B7,binding result,[12],binds
B8,binding result,[12],binds
B9,EC50,[9],1.09 nM
B10,EC50,[9],1.35 nM
B11,binding result,[4],binds
B12,binding result,[12],binds
B13,binding result,[12],binds
B14,binding result,[12],binds
B15,binding result,[12],binds
B16,EC50,[9],1.62 nM
B17,binding result,[12],binds
